Tests used:
[1] = target: T1, P62 (endogenous, mouse brain) (mouse, UniProt Q64337 2-442, limits assumed); assay: immunoprecipitation / immunoblot from AAV2-injected mouse brains after MCAO (FIGS. 6F and 6G)
T1 construct: Endogenous protein in mouse brain tissue

[2] = target: T1, P62 (endogenous, mouse brain); assay: protein ligation assay (PLA) in situ, mouse brain CA1 after MCAO

B1: GFP-EBP1-K376A expressed from AAV2 in mouse brain (other, UniProt Q9UQ80 1-394, looked up)
chain: MSGEDEQQEQTIAEDLVVTKYKMGGDIANRVLRSLVEASSSGVSVLSLCEKGDAMIMEETGKIFKKEKEMKKGIAFPTSISVNNCVCHFSPLKSDQDYILKEGDLVKIDLGVHVDGFIANVAHTFVVDVAQGTQVTGRKADVIKAAHLCAEAALRLVKPGNQNTQVTEAWNKVAHSFNCTPIEGMLSHQLKQHVIDGEKTIIQNPTDQQKKDHEKAEFEVHEVYAVDVLVSSGEGKAKDAGQRTTIYKRDPSKQYGLKMKTSRAFFSEVERRFDAMPFTLRAFEDEKKARMGVVECAKHELLQPFNVLYEKEGEFVAQFKFTVLLMPNGPMRITSGPFEPDLYKSEMEVQDAELKALLQSSASRKTQKKKKKKASATAENATSGETLEENEAGD
notes: also called AAV2-GFP-EBP1-K376A; AAV2-K376A; not shown: GFP tag
[1]
  binding result: no binding

B2: EBP1 (endogenous, mouse brain) (other, UniProt P50580 2-394, looked up)
chain: SGEDEQQEQTIAEDLVVTKYKMGGDIANRVLRSLVEASSSGVSVLSLCEKGDAMIMEETGKIFKKEKEMKKGIAFPTSISVNNCVCHFSPLKSDQDYILKEGDLVKIDLGVHVDGFIANVAHTFVIGVAQGTQVTGRKADVIKAAHLCAEAALRLVKPGNQNTQVTEAWNKVAHSFNCTPIEGMLSHQLKQHVIDGEKTIIQNPTDQQKKDHEKAEFEVHEVYAVDVLVSSGEGKAKDAGQRTTIYKRDPSKQYGLKMKTSRAFFSEVERRFDAMPFTLRAFEDEKKARMGVVECAKHELLQPFNVLYEKEGEFVAQFKFTVLLMPNGPMRITSGPFEPDLYKSEMEVQDAELKALLQSSASRKTQKKKKKKASKTVENATSGETLEENGAGD
notes: Endogenous protein detected in situ by PLA; also called mouse Ebp1
[2]
  binding result: binds

From US20240325490A1 (RESEARCH AND BUSINESS FOUNDATION SUNGKYUNKWAN UNIVERSITY, published 2024)
